Target: the molecule itself
Test: cryo-EM structure; BbZIP in amphipol PMAL-C8 nanoparticles, purified with Cd2+, 20 mM HEPES pH 7.5, 100 mM NaCl; C2 symmetry, 3.05 Å (C1: 3.3 Å)

B1: ZIP-family zinc transporter from Bordetella bronchiseptica (BbZIP) (natural protein, UniProt A0A0H3LM39 1-309, looked up)
chain: MNQPSSLAADLRGAWHAQAQSHPLITLGLAASAAGVVLLLVAGIVNALTGENRVHVGYAVLGGAAGFAATALGALMALGLRAISARTQDAMLGFAAGMMLAASAFSLILPGLDAAGTIVGPGPAAAAVVALGLGLGVLLMLGLDYFTPHEHERTGHQGPEAARVNRVWLFVLTIILHNLPEGMAIGVSFATGDLRIGLPLTSAIAIQDVPEGLAVALALRAVGLPIGRAVLVAVASGLMEPLGALVGVGISSGFALAYPISMGLAAGAMIFVVSHEVIPETHRNGHETTATVGLMAGFALMMFLDTALG
notes: Zrt-/Irt-like protein (ZIP) zinc transporter of Bordetella bronchiseptica, full length gene synthesized and cloned into pET15b; molecular weight 31 kDa; Membrane protein; purified with Cd2+ (CdCl2) present; three Cd2+ ions per protomer and two phosphatidylethanolamine lipids at the dimer in the cryo-EM structure; also called WT BbZIP; source: E. coli C43 (DE3), purified (Ni-NTA, thrombin …)
- stoichiometry N: 2

From paper PMC10256678, “Structural mechanism of intracellular autoregulation of zinc uptake in ZIP transporters” (Nature Communications, 2023)
